Measurements: publication PMC11967829, “Nudix Hydrolase 13 Impairs the Initiation of Colorectal Cancer by Inhibiting PKM1 ADP‐Ribosylation” (Advanced Science, 2025)

B1: N13 peptide (mimic peptide of NUDT13 230–252 AA) (peptide, UniProt Q86X67 230-252, looked up)
peptide: GFCDIGESVEETIRREVAEEVGL
notes: The peptide was synthesized conjugated with the membrane-penetrating peptide iRGD (N13-iRGD); also called N13-iRGD; source: synthetic peptide
B2: purified recombinant PKM1 (natural protein)
chain: not shown
notes: PKM1, the M1 splice isoform of pyruvate kinase M (PKM); also called purified PKM1; source: purified recombinant

Tests used:
[1] = target: B2; experiment: pull-down; in vitro pull-down of N13 peptide with purified PKM1 or PKM2, Coomassie blue staining (Figure 7D); details: both partners purified
recombinant human PARP1 = target: T1, recombinant human PARP1 (human, UniProt P09874 1-1014); experiment: pull-down; in vitro pull-down of PKM1 and PARP1 (Figure 5E); details: both partners purified
T1 construct: PARP1 (poly ADP-ribose polymerase 1), human, recombinant; The source is named for the in vitro PARylation assay; source: bought: Sino Biological
T1 sequence (P09874 whole entry): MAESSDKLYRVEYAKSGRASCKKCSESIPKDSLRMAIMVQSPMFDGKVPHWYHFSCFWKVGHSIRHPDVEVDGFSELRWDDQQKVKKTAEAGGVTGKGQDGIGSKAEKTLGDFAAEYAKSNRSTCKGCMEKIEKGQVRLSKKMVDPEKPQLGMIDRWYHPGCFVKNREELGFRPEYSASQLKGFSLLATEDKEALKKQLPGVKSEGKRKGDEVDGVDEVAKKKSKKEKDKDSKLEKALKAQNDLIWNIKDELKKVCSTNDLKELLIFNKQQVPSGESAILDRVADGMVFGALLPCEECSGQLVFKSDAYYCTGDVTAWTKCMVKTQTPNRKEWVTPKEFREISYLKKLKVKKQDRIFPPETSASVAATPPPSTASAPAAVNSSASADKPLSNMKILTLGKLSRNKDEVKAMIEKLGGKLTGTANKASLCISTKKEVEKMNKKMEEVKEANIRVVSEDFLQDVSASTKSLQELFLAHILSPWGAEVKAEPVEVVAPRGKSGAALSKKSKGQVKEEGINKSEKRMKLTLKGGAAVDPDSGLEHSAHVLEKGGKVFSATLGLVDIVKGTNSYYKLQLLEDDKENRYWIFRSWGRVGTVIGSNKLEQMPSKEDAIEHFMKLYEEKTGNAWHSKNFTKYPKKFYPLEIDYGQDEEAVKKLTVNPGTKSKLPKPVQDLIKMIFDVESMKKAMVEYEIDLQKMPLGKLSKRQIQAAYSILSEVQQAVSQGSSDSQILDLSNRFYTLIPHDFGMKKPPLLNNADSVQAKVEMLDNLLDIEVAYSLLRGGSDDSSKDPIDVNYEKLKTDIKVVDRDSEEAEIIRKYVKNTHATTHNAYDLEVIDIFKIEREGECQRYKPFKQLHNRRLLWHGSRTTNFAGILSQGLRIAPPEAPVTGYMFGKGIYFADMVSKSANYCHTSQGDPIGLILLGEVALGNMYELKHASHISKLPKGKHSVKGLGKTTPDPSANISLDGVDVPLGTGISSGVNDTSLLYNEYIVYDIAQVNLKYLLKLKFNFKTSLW

Binder: B1
- binding result [1]: binds

Binder: B2
- binding result (recombinant human PARP1): binds
